This is an account of results in the nanobody polyreactivity screen of Harvey et al. (2022).

The data set is described as follows: yeast display, Sf9 membrane polyspecificity reagent, FACS + sequencing; frameworks hold sequencing errors. Put shortly:
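A nanobody's polyreactivity label depends on the gate it was sorted from. Yeast display cells were stained with 10% biotinylated, detergent-solubilized Sf9 membrane reagent for 1 hour at 4 °C, enriched on streptavidin microbeads and sorted by FACS. The low and high (top ~1%) gates were set on anti-HA fluorescence for expression and streptavidin fluorescence for reagent binding.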
For “QVQLVESGGGLVQAGRSLRLSCAASGRTFYHYAMGWYRQAPGKERELVAAIDWSTASTYYADSVKGRFTISRDNAKNTVYLQMNSLIQEDTAVYYCATDSAILINFVLYDYWGQGTQVTVSS”, the “polyreactivity (PSR sort gate)” value is recorded as “low polyreactivity”.

“QVQLVESGGGLVQAGGSLRLSCAASGLTFGHYAMGWYRPAPGKERELVAAITSGGRTYYADSVKGRFTISRDNAKYTVYLQMNSLKPEDTAVYYCATRGPRYRYYYWGQGTQVTVSS”: the “polyreactivity (PSR sort gate)” value was “high polyreactivity”.

As for “QVQLVESGGGLDQAGGSLRLSSAASGLTFFSEYAMGLYRQPPGIERELVASIDWSGDSTYYADSVKGRFTISRDNAMKTVYLQMNSLKPEYTAVYYCAKDYSTEISQEYYYWVQGTQVTVSS”, the “polyreactivity (PSR sort gate)” value is “high polyreactivity”.

Take “QVQLQESGGGLVLAGGSLRLSCSASGNISVYGSMGWYRQAPGKEREFVATIDPGTNTNYADSVKDRFTISRDNAKNTVYLQMTSLKPEDTAVYYCAVEAGSDGPYRYWGQGTQVTVSS”: the “polyreactivity (PSR sort gate)” value was “low polyreactivity”.

As for “QVQLVESGGGLVQAGGSLRLSCAASGRIFSGYAMGWYRQAPGKERELVAAISQRGGSTTYADSVKGRFTISRDNAKNTVYLQMNSLKPEDTAVYYCAKRYTYPSGYDYWGQGTQVTVSS”, the “polyreactivity (PSR sort gate)” value is listed as “low polyreactivity”.

Regarding “QVQLVESGGGLVQAGGSLRLSCAASGSIFYYYVMGWYRQAPGKERELVAAIRSSGTSTYYADSVKGRFTISRDNAKNTVYLQMNSLKPEDTAVYYCNRARSSSRYDYWGQGTQVTVSS”, the “polyreactivity (PSR sort gate)” value was “low polyreactivity”.

“QVQLVESGGCLVKAGGSLRLSCAASGSTFSDNAIGWSRQAPGKERELVAAINYSDGSTNYADSVKGRFTISRDNAKNTVYLQINSQQPEDTAVYYCAVDIYFWSYGWWGPYDYWGQGTQVTVSS”: the “polyreactivity (PSR sort gate)” value was “low polyreactivity”.

Regarding “QVQLVESGGGLVQAGGSLRLSCADSGRIFYANAMGWYRQAPGKERELVAAISSGGSTYYADSVKGRFTISRDNAKNTVYLQMNSLKPEDTAVYYCAVYTHKIVRPEYDYWGQGTQVTVSA”, the “polyreactivity (PSR sort gate)” value was “low polyreactivity”.

“QVQLVESGGGLDQAGGSLRLSCAASGSTFSIYTMGWYRQAPGKEREFVAAITYIGGRTYYADSVKGRFTISRDNAKNTVYLQMNSLKPEDTAVYYCAADWAYYVASYLYYTFDYWGQGTQVTVSS”: the “polyreactivity (PSR sort gate)” value is recorded as “low polyreactivity”.

Take “QVQLVESGGGLVQAGGSLRLSCAASGSIFFNTMGWYIQAPGKERELVAAISRSGGSTYYADSVKGRFTISRDNAKNTVYLQMNSLKPEDTAVYYCNALRWSQYTYSSRLGHFDSWGQGTQVTVSS”: the “polyreactivity (PSR sort gate)” value is listed as “high polyreactivity”.

As for “QVQLVESGGGLVQAGGSLRLSCAASGFIFYHNAMGWYRQAPGKERELVAAISQSGGRTYYADSVKGRFTISRDNAKNTVYLQMNSLKPEDTAGYYCAKRTRVYHPTYDYWGQGTQVTVSS”, the “polyreactivity (PSR sort gate)” value is on record as “high polyreactivity”.

For the sequence “QVQLVESGGGLVQAGGSLRLSCAASGSTFHYYARGWYRQAPGKERELVAAISQSGSGTYYADSVKGRFTISRDYAKNTVYLQMNSLKPEDTAVYYCAKDITGLSRYRRDYWGQGTQVTVSS”, the “polyreactivity (PSR sort gate)” value was “low polyreactivity”.

For the sequence “QVQLVESGGGLVQAGGSLRLSCAASGSTCARNSMGWYRQAPGKERELVAAISYSGGTTYYADSVKGRFTISRDNAKNTVYLQRNSLKPEDTAVSYCAKWEGHGRNPWGAGTEGDYWGQGTQVTVSS”, the “polyreactivity (PSR sort gate)” value is “low polyreactivity”.

“QVQLIESGGGLVQAGGSLRLSCAASGSIFAANAMGWYRQAPGKEREFVASISYTGASTYADSVKGRFTISRDNAKNTVYFQMNSLKPEDTAVYYCAKDGYWTGLDPYYYWGQGTQVTVSS”: the “polyreactivity (PSR sort gate)” value is on record as “low polyreactivity”.

Consider “KVQLVESGGGLVQAGGSLLLSCAASGRTFTYNAIGWYRQARGTERELVAVITNSGGSTYYADSVKGRYTISRDNAKNTVYLQRNRLKPEDTAVYYCAADYFSRYWYRFYYWGQGTQVTVSS”, for which the “polyreactivity (PSR sort gate)” value is “high polyreactivity”.

“QVQLVESVGGLVQAGGSLSLSCAASGRMLVRNAMGWYRQAAGKERELVAVIRWSGGRTSYADSVKGRFTISRDNAKNTVYLQMNSLKPEDTAVYYCNKGGSYPTSNYKSYWVGVDYCGQGTQVTVSS”: the “polyreactivity (PSR sort gate)” value is listed as “low polyreactivity”.

On to “QVQLVDSGGGLVQAGGSLRLGCAASGRIFAGYGMGWYRQAPGKERELVATITSGGSTYYADSLKGRFTISRDNAKNTVYLQMNSLKPEDTAVYYCNRYFSEALLHGSSYNRYYYWGQGTQVSVSS”, for which the “polyreactivity (PSR sort gate)” value is “low polyreactivity”.

In the case of “QVQLVESGGGLVQAGGSLRLSCAASGRTFRTNAMGWYRQAPGKEPELVAAISRGGGSTYYADSVKGRFTISRDNAKNTVYLQMNSLKPEDTAVYDCNALRNGIAFGAMDYWGQGTQVNVSS”, the “polyreactivity (PSR sort gate)” value is recorded as “high polyreactivity”.

For the sequence “QVQLVESGGGLVQAGGSLRLSCAASGYTFVVYAMGWYRPAPGKERELVAAINKSGGSTYYADSVKGRFTISRDNAKNTVYLQMNSLKPEDTAVYYCAAVVWILYSSSRGDYWGQGTQVTVSS”, the “polyreactivity (PSR sort gate)” value is reported as “low polyreactivity”.

Turning to “QVQLVESGGGLVQAGGILRLSCAASGSIIVYNSMVCYRQAPGKERELVARITGRGGRTYYADSVKGRFTISRDNAKNTVYLQMNSLKPEDTAVYYCAKYGYWGQGTQVTVSS”, the “polyreactivity (PSR sort gate)” value is recorded as “high polyreactivity”.

For the sequence “QVQLVESGGGLVQAGGSLRLSCAASGFTFRFNAMGWYRHAPGKERELVAGITSGGTTNYAYSVKGRFTISRDNAKNTVYLHMNSLKPEDTAVYYCNAAWYRWKQRYDYWGQGTLVTVSS”, the “polyreactivity (PSR sort gate)” value is recorded as “low polyreactivity”.

On to “QVQLVESGGGLVQAGGSLRLSCAASGSTFSEKAMGWYRQAPGKERELVAAISRRGGSTYYADSVKGRFTISRDNAKNTVYYQMNSLKPEDTAVYYCNVVNSGSFDYDYWGQGTPVTVSS”, for which the “polyreactivity (PSR sort gate)” value is on record as “high polyreactivity”.

For the sequence “QVQLVESGGGLVQAGGSLRLSCAASGSTLGYYAMGWYRQAPGKERELVAAIRYSDGNTYYADSVKGRFTISRDNAKNTVYLQMNSLKPEDTAVYYCAARRGRSFRGVFYPFEYWGQGTQVTVSS”, the “polyreactivity (PSR sort gate)” value is reported as “high polyreactivity”.

As for “QVQLVESGGGLVQAGGSLRLSCAASGSTFKAYAMGWYRQAPGKEREFVAAITRSGGRTYYADSVKGRFTISRDNAKNTVYLQMNSLKPEDTAVYYCAAYTWYAWVSDPTNEYWGQGTQVTVSS”, the “polyreactivity (PSR sort gate)” value is given as “low polyreactivity”.

For the sequence “QVQLVESGGGLVLAGGSLRLSCAASGRIFTSARGWYRQAPGKERELVAAISSSGGRTYYADSVKGRFTISRDNAKNTVYLQMNSLKPEDTAVYYCNTRPGSVFRAGGDYWGQGTQVTVSS”, the “polyreactivity (PSR sort gate)” value was “high polyreactivity”.

In the case of “QVQLVESGGGLVQAGGSLRLSCAASGSIFYYYVMGWYRQAPGKERELVAAITYSGGRTYYADSVKGRFTISRDNAKYTVYLQMNSLKPEDTAVYYCNVVIYYFNSRSVFYDYDYWGQGTQVTVSS”, the “polyreactivity (PSR sort gate)” value is given as “high polyreactivity”.

Take “QVQLVESGGCLVQAGGRLRLSCAASGFIFGRYAMGWYRQAPGKERELVAAITWSGGSTYYADSVKGRFTISRDNAKNTVYLQMNSLKPQDTAVYYCAAYAYAPRDGYGWRKYRFYYWGQGTQVTVSS”: the “polyreactivity (PSR sort gate)” value is listed as “high polyreactivity”.

For “QVQLVESGGGLVQAGGSLRLSCAASGFTFSSNAMGWYRQAPGKERELVAAIRGSDGNTYYADSVKGRFTISRDNAKNTVYLQMNSLKPEDTAVYYCNARSYGYRTSRARYNYWGQGTQVTVSS”, the “polyreactivity (PSR sort gate)” value is “high polyreactivity”.

Take “QVQLVESGGGLVQAGGSLRLSCAASGSIFLLYAMGWYSQAPGKVRELVAAISRSGDSTHYADSVKGRFTISRDNAKNTVYLQMNSLKPEDTAVYYCAADGYDPYGGLYDYWGQGTQVTVSS”: the “polyreactivity (PSR sort gate)” value is on record as “low polyreactivity”.

“QVQLVESGGGLVQAGGSLRLSCAASGSTFVGNAMGWYRQAPGKERELVAAITSGGSTNYADSVKGRFTISRDNAKNTVYLQMNSLKPEDTAVYYCAKRVSGSPPTAGSLSDSWGQGTQVTVSS”: the “polyreactivity (PSR sort gate)” value was “high polyreactivity”.

Take “QDQLVESRGGLVQAGGSLGLSCAASGSIFSYYAMGWYRQAPGKERELVAAITSGGATTYYADSVKGRFTISRDYAKNTVYLQMNSLKPEDTAVYYCAAGYYVYYRWWELDYWGQGTQVTVSS”: the “polyreactivity (PSR sort gate)” value is “low polyreactivity”.

Take “QVQLVESGGGLVQAGGSLRLSCAASGFTSWYDMGWYRQAPGKEMELVAAISSGGSTNYADSVKGRFTISRDNAKNTVYLEMNSLKPEDTAVYYCNAECYETGVPYFGFYYWGQGTQVTVSS”: the “polyreactivity (PSR sort gate)” value is “low polyreactivity”.

With “QVQLVESGAGLVQAGGSLRVSCAASGSTFDSYAMGLYRQAPGKERELVAAITNGGSTYYADSVKGRFTISRDHAKNTVYLQMNRLKPEDTAVYDCATEDYLLDYLYDYWGPGTQVTVSS”, the “polyreactivity (PSR sort gate)” value is “low polyreactivity”.

Take “QVQLVESGGGLVQAGGSLRLSCAASGSTFWDYAMGWYRQSPGKERELVAGITYSGTSTYYADSVKARFTISRDHAKNTVYLQMNSLKPEDTAVYYCAAESQAVGWWTPGYDYWGQGTQVTVSS”: the “polyreactivity (PSR sort gate)” value is reported as “low polyreactivity”.

On to “QVQLVESGGGLVQAGGSLRIICAASGSIFPYYAKGWYRQAPGKERELVARITITGGITYYADSVKGRFSISRDNAKNTVYLQMHSLKPEDTAVYYCAADRDWQYSFRHSVYVYDYDFWGQGTQVTVSS”, for which the “polyreactivity (PSR sort gate)” value is listed as “low polyreactivity”.

Consider “QVLLVESGGGLVQAGGSHRLSCAASGFIFWDYAKGGYRQAPGKERELVAAITSGGGSTYYADSVKGRFTISRDNAKNTVYLQMNSLKPEDTAVYYCNAVSWEGYDFDYWGQGTQVTVSS”, for which the “polyreactivity (PSR sort gate)” value is recorded as “high polyreactivity”.

For “QVQLVESGGGLVQAGGSLRLSCAASGSTLSDKSIGWYRQAPGKEMELVASISWSGGTYYADSVKGRFTISRDNAKNTVYLQMNSLKPEDTAVYYCAAYIYYNYSRQYLYDYWGQGTQVTVSS”, the “polyreactivity (PSR sort gate)” value is reported as “low polyreactivity”.

As to “LVQLVESGVGLVHAGRSLRLSCAASGSIFPYYTMGWYRPAPGKERELVAAISGSGGSTYYADSVKGRFTISRDNAKNTVYLQMNSLKPEYTAVYYCAAYRRTWFDYWGQGTQVTVSS”, the “polyreactivity (PSR sort gate)” value was “high polyreactivity”.

Regarding “QDQLVESGGGLVQAGGSLRLSCAASGSTFYTYAMGWYRQEPGKERELVAAISYRGGSSYYAVSVKGRFTISRDNAKYTVYLQMNSLKPEDTAVYYCAAKVSRAGDFWGQGTQVTVSS”, the “polyreactivity (PSR sort gate)” value is reported as “low polyreactivity”.

In the case of “QVQLVESGGGLVQAGGSLRLTCAASGFIFPRYAMGWYRQAPGKERELVAAISGNGVRTYYADSVKGRFTISRDNAKNTVYLQMNSLNPEDTAVYYCNTGADVRYRYYYWGQGTQVTVSS”, the “polyreactivity (PSR sort gate)” value is recorded as “high polyreactivity”.
